The source of these data is US20190300590A1.

Sequence of IL-23R on human cells (IL-23R-expressing DB cells; human NK cells) (human) (Q5VWK5 24-629): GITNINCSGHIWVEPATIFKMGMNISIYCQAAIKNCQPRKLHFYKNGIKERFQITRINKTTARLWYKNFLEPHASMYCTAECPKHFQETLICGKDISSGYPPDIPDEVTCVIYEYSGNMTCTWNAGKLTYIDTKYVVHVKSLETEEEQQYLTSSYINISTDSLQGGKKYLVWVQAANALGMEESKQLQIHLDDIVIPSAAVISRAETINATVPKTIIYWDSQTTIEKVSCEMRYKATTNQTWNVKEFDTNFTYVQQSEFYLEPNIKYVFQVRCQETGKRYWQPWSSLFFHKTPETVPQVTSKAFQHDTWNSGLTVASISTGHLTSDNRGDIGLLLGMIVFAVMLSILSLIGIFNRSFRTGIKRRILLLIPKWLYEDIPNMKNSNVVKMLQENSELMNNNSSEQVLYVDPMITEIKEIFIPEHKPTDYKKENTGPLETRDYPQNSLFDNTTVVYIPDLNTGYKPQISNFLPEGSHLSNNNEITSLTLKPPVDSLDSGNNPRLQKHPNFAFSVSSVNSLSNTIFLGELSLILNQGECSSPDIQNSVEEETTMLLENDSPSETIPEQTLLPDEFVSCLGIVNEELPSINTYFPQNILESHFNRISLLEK

One experiment has as its target IL23R_huFC (human) (UniProt Q5VWK5). As to the kind of experiment: Human IL23R/IL23 ELISA. (In general: ELISA stands for enzyme-linked immunosorbent assay.)
Target sequence in this assay (Q5VWK5 24-353): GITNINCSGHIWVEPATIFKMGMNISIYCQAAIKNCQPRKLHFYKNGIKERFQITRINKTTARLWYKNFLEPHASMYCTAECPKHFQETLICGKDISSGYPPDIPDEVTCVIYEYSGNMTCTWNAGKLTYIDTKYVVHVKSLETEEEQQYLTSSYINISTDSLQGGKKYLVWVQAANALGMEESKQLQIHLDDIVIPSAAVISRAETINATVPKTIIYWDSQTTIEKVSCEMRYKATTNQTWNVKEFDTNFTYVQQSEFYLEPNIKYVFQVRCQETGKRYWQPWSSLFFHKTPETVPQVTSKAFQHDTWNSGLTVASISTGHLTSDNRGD
In general, IC50 refers to the midpoint of a concentration-inhibition curve. A high value points to lower potency. “Ac-[D-Arg]-Cyclo-[[Abu]-QTWQC]-[Phe(4-2ae)]-[2-Nal]-[THP]-EDD-NH2 (peptide)” registered an IC50 of 10 to 100 nM. Still for that read-out and setting: to “Ac-[D-Arg]-Cyclo-[[Abu]-QTWEC]-[Phe(4-2ae)]-[2-Nal]-[THP]-EDN-NH2 (peptide)” belongs 10 to 100 nM; to “Ac-Cyclo-[[Abu]-QTWQC]-[Phe(4-2ae)]-[2-Nal]-[THP]-EDN-OH (peptide)”, 10 to 100 nM. Same read-out and setting: to “Ac-[D-Arg]-Cyclo-[[Abu]-QTWEC]-[Phe(4-2ae)]-[2-Nal]-[THP]-ENN-OH (peptide)” belongs 1 to 10 nM; to “Ac-[D-Arg]-Cyclo-[[Abu]-ETWQC]-[Phe(4-2ae)]-[2-Nal]-[THP]-ENN-NH2 (peptide)”, 1 to 10 nM. On the same count and under the same terms, next, “Ac-[D-Arg]-Cyclo-[[Abu]-QTWEC]-[Phe(4-2ae)]-[2-Nal]-[THP]-ENN-NH2 (peptide)”: 1 to 10 nM; “Ac-[D-Arg]-Cyclo-[[Abu]-ETWQC]-[Phe(4-2ae)]-[2-Nal]-[Tetrahydropyran-A]-END-NH2 (peptide)”: 1 to 10 nM. For the substance “Ac-[D-Arg]-Cyclo-[[Abu]ETWQC]-[Phe(4-2ae)]-[2-Nal]-[THP]-ENN-OH (peptide)”, the IC50 was in the range of 1 to 10 nM.

As for “Ac-[D-Arg]-Cyclo-[[Abu]-QTWQC]-[Phe(4-2ae)]-[2-Nal]-[THP]-EDN-NH2 (peptide)”, the IC50 was 10 to 100 nM. With “Ac-[D-Arg]-Cyclo-[Abu-ETWEC]-[Phe(4-2ae)]-[2-Nal]-[THP]-ENN-NH2 (peptide)”, the IC50 is 1 to 10 nM.

For “Ac-[D-Arg]-Cyclo-[[Abu]-QTWEC]-[Phe(4-2ae)]-[2-Nal]-[THP]-END-NH2 (peptide)”, the IC50 lay within 1 to 10 nM.

With “Ac-[D-Arg]-Cyclo-[[Abu]-QTWQC]-[Phe(4-2ae)]-[2-Nal]-[THP]-END-OH (peptide)”, the IC50 lay in the range of 10 to 100 nM. On the same count and under the same terms, next, “Ac-[D-Arg]-Cyclo-[[Abu]-ETWQC]-[Phe(4-2ae)]-[2-Nal]-[THP]-EDN-NH2 (peptide)”: 10 to 100 nM; “Ac-[D-Arg]-Cyclo-[[Abu]-QTWOC]-[Phe(4-2ae)]-[2-Nal]-[THP]]-END-NH2 (peptide)”: 1 to 10 nM.

The next experiment addresses IL-23R on human cells (IL-23R-expressing DB cells; human NK cells) (human) (UniProt Q5VWK5). As to the kind of experiment: cell-based or functional assay.
“Alexa488-PEG4 through [D-Arg]: [D-Arg]-Cyclo-[[Abu]-QTWQC]-[Phe(4-2ae)]-[2-Nal]-[THP]-ENN-NH2 (peptide)” registered a pStat3 HTRF IC50 of less than 10 nM.

The target in another experiment is Rat IL-23R_huFC (rat). As to the kind of experiment: rat ELISA vs IL-23.
“Ac-Cyclo-[[Abu]-QTWQC]-[Phe[4-(2-aminoethoxy)]]-[2-Nal]-[Achc]-ENN-NH2 (peptide)”: the IC50 was less than 10 nM. Consider “Ac-Cyclo-[[Abu]-QTWQC]-[Phe[4-(2-aminoethoxy)]]-[2-Nal]-[Acbc]-ENN-NH2 (peptide)”, for which the IC50 was less than 10 nM. Same read-out and setting: next, “Ac-Cyclo-[[Abu]-QTWQC]-[Phe[4-(2-aminoethoxy)]]-[2-Nal]-[Acvc]-ENN-NH2 (peptide)”: less than 10 nM.

A further experiment deals with IL23R_huFC (human) (UniProt Q5VWK5). As to the kind of experiment: IL23-IL23R competitive binding ELISA.
Target sequence in this assay (Q5VWK5 24-353 limits assumed): as the sequence (Q5VWK5 24-353) above
Take “[Ac-[Pen]-QTWQ-[Pen]-[Phe[4-(2-aminoethoxy)]-[2-Nal]-[Aib]-[Lys(Ac)]-NQ-NH2]2PEG25 (peptide)”: the IC50 is 10 to 25 nM. Regarding “[Ac-[Pen]-QTWQ-[Pen]-[Phe[4-(2-aminoethoxy)]-[2-Nal]-[Aib]-[Lys(Ac)]-NQ-NH2]2DIG (peptide)”, the IC50 fell in the range of 25 to 100 nM.
